Measurements reported in publication PMC4976216.

Biological target: microtubules made from mutant yeast tubulin containing no β-CTT (Saccharomyces cerevisiae) (UniProt P09733)
Test: co-sedimentation; microtubule binding spin-down assay with yeast tubulin polymerized at 30 °C, experiment carried out at 30 °C; anti-tubulin and anti-CGN western blot

reduction in binding against wild-type yeast tubulin: 75%
B1: GST-CGN(1-406) (domain or fragment)
chain: MEQAPNMAEPRGPVDHGVQIRFITEPVSGAEMGTLRRGGRRPAKDARASTYGVAVRVQGIAGQPFVVLNSGEKGGDSFGVQIKGANDQGASGALSSDLELPENPYSQVKGFPAPSQSSTSDEEPGAYWNGKLLRSHSQASLAGPGPVDPSNRSNSMLELAPKVASPGSTIDTAPLSSVDSLINKFDSQLGGQARGRTGRRTRMLPPEQRKRSKSLDSRLPRDTFEERERQSTNHWTSSTKYDNHVGTSKQPAQSQNLSPLSGFSRSRQTQDWVLQSFEEPRRSAQDPTMLQFKSTPDLLRDQQEAAPPGSVDHMKATIYGILREGSSESETSVRRKVSLVLEKMQPLVMVSSGSTKAVAGQGELTRKVEELQRKLDEEVKKRQKLEPSQVGLERQLEEKTEECSRL
